What was measured:
[1] = molecular target: monomeric streptavidin variant mSA2; assay: fluorescent binding curve, labeled mSA2 in 50% urine, 4 h; quadratic fit
streptavidin [2] = molecular target: T1, streptavidin (UniProt P22629 37-163, limits assumed); assay: apparent Kd (Kd,app); fluorescent binding curve, labeled SA in PBS, 4 h exposure; quadratic fit
T1 construct: It was used without a stated label in the sandwich assays; also called SA

streptavidin [3] = molecular target: T1, streptavidin; assay: apparent Kd (Kd,app); fluorescent binding curve, labeled SA in 50% blood serum, 4 h; quadratic fit
[4] = molecular target: monomeric streptavidin variant mSA2; assay: fluorescent binding curve, labeled mSA2 in PBS, 4 h exposure; quadratic fit
Procedure: The binding function of rcSso7d.SA oligomer-PNIPAM thin films was measured using fluorescently-labeled monomeric streptavidin (mSA2) and fluorescently-labeled streptavidin (SA). Details for the expression, purification, and fluorescent labeling of mSA2 are provided below. Samples were prepared by serial dilution of SA or mSA2 in PBS (pH 7.4), human urine (diluted to 50% v/v in PBS, pH 7.4), or blood serum (obtained as the supernatant by centrifuging whole blood at 1500×g for 10 minutes, then diluted to 50% v/v in PBS, pH 7.4). 0.5 μL drops of solutions containing serially diluted fluorescent mSA2 and fluorescent SA samples in PBS (pH 7.4) were gently applied to the surface of each bioconjugate thin film. Films were incubated in a sealed chamber saturated with water vapor at room temperature to prevent to prevent drying of the applied fluorescent samples. […] Fluorescence microscopy images were acquired at 4× magnification using a Cy5 filter set and exposure time of 5000 ms on an Olympus IX-81 inverted fluorescence microscope with an AxioCam HRC CCD camera. Fluorescent intensity was calculated using ImageJ software⁶⁷ by determining the average fluorescent signal in a rectangular area of the fluorescent image free of defects and occupying no less than half of the full sample application area.
To evaluate how the apparent size-based diffusion properties translated to biosensing capabilities, binding curves were measured using SA and mSA2 solutions in buffer. Binding curves were fit with a quadratic model that is a function of three parameters: the average MFI per binding event a, the total concentration of binding sites [P]T, and the apparent dissociation constant K_{d,app} describing the binding equilibrium between analyte and binding sites within the thin film.

[5] = molecular target: monomeric streptavidin variant mSA2; assay: fluorescent binding assay: labeled mSA2 in PBS applied to the protein monolayer, rinsed, fluorescence microscopy
Procedure: The binding function of rcSso7d.SA oligomer-PNIPAM thin films was measured using fluorescently-labeled monomeric streptavidin (mSA2) and fluorescently-labeled streptavidin (SA). Details for the expression, purification, and fluorescent labeling of mSA2 are provided below. Samples were prepared by serial dilution of SA or mSA2 in PBS (pH 7.4), human urine (diluted to 50% v/v in PBS, pH 7.4), or blood serum (obtained as the supernatant by centrifuging whole blood at 1500×g for 10 minutes, then diluted to 50% v/v in PBS, pH 7.4). 0.5 μL drops of solutions containing serially diluted fluorescent mSA2 and fluorescent SA samples in PBS (pH 7.4) were gently applied to the surface of each bioconjugate thin film. […] After 1 hour, films were thoroughly rinsed with water for 10 seconds (a time determined to be sufficient to remove unbound molecules from the film, see FIG. 33, dried under filtered airflow, and immediately analyzed for fluorescent signal. Fluorescence microscopy images were acquired at 4× magnification using a Cy5 filter set and exposure time of 5000 ms on an Olympus IX-81 inverted fluorescence microscope with an AxioCam HRC CCD camera. Fluorescent intensity was calculated using ImageJ software⁶⁷ by determining the average fluorescent signal in a rectangular area of the fluorescent image free of defects and occupying no less than half of the full sample application area. […]

[6] = molecular target: monomeric streptavidin variant mSA2; assay: fluorescent binding curve, labeled mSA2 in 50% blood serum, 4 h; quadratic fit
streptavidin [7] = molecular target: T1, streptavidin; assay: apparent Kd (Kd,app); fluorescent binding curve, labeled SA in 50% urine, 4 h; quadratic fit
[8] = molecular target: monomeric streptavidin variant mSA2; assay: apparent Kd (Kd,app); fluorescent binding curve, labeled mSA2 in 50% urine, 4 h; quadratic fit
[9] = molecular target: monomeric streptavidin variant mSA2; assay: fluorescent binding assay, labeled mSA2; signal three standard deviations above blank
Procedure: The binding function of rcSso7d.SA oligomer-PNIPAM thin films was measured using fluorescently-labeled monomeric streptavidin (mSA2) and fluorescently-labeled streptavidin (SA). Details for the expression, purification, and fluorescent labeling of mSA2 are provided below. Samples were prepared by serial dilution of SA or mSA2 in PBS (pH 7.4), human urine (diluted to 50% v/v in PBS, pH 7.4), or blood serum (obtained as the supernatant by centrifuging whole blood at 1500×g for 10 minutes, then diluted to 50% v/v in PBS, pH 7.4). 0.5 μL drops of solutions containing serially diluted fluorescent mSA2 and fluorescent SA samples in PBS (pH 7.4) were gently applied to the surface of each bioconjugate thin film. Films were incubated in a sealed chamber saturated with water vapor at room temperature to prevent to prevent drying of the applied fluorescent samples. After 1 hour, films were thoroughly rinsed with water for 10 seconds (a time determined to be sufficient to remove unbound molecules from the film, see FIG. 33, dried under filtered airflow, and immediately analyzed for fluorescent signal. Fluorescence microscopy images were acquired at 4× magnification using a Cy5 filter set and exposure time of 5000 ms on an Olympus IX-81 inverted fluorescence microscope with an AxioCam HRC CCD camera. Fluorescent intensity was calculated using ImageJ software⁶⁷ by determining the average fluorescent signal in a rectangular area of the fluorescent image free of defects and occupying no less than half of the full sample application area.
Oligomerization of rcSso7d.SA also brings about a decrease in biosensor limit of detection (LOD). […] While all thin films display improvements up to threefold in LOD over the monolayer, the trend in LOD with respect to degree of oligomerization is non-monotonic. The primary factor that is expected to affect LOD in the studied biosensors is number of binding sites, as more binding sites enable a greater number of analyte molecules to be captured and shifts analyte-receptor equilibrium in favor of binding events.

T1 sequence (P22629 37-163 limits assumed): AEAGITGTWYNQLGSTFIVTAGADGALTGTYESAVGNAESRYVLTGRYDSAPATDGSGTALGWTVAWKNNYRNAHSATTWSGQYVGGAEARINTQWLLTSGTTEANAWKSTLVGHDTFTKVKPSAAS

B1: rcSso7d.SA monolayer (designed binder)
chain: MGSIHHHHHHSSGLVPRGSHMCATVKFTYQGEEKQVDISKIKIVARDGQYIDFKYDEGGGAYGYGWVSEKDAPKELLQMLEKQ
modifications: EDC/NHS-activated protein coupled to an amine-functionalized silicon wafer
notes: also called monomeric rcSso7d.SA; surface-immobilized rcSso7d.SA
For B1, the “[P]T (total concentration of binding sites)” value [1] was 0.4 nM, the Kd (streptavidin [2]) was 8 µM and the Kd (streptavidin [3]) was 40 µM. The “[P]T (total concentration of binding sites)” value [4] was 0.35 nM, the “EC50 (read off the curve)” value [5] was about 2 µM and the “[P]T (total concentration of binding sites)” value [6] was 0.4 nM. For the same binder, the Kd (streptavidin [7]) was 47 µM, the Kd [8] was 50 µM and the “limit of detection (LOD)” value [9] was 360 nM.

— US20200057058A1 (MIT, published 2020)
